# From the nanobody polyreactivity screen of Harvey et al. (2022)
# Test: yeast display, Sf9 membrane polyspecificity reagent, FACS + sequencing; frameworks hold sequencing errors
# Summary of the method: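 Galactose-induced (36–48 hours) yeast carrying a synthetic nanobody display library were exposed to 10% biotinylated, detergent-solubilized Sf9 membrane reagent at 4 °C for 1 hour. FACS followed streptavidin microbead enrichment, using low and high (top ~1%) gates for expression (anti-HA) and reagent binding (streptavidin). Colony PCR, MiSeq 2 × 250 sequencing and CDR-length filtering followed. Labels for polyreactivity reflect the gate of origin.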
row,Sequence,polyreactivity (PSR sort gate)
1,QVQLVDSGGGLVQAGGSLRLSCPASGRTFYVYDMGWYRQSPGKERELVAVISSSGSTNYADSVKGRFTISRDNAKNTVYLQMNSLKPEDTAVYYCNRRRWYFFSLDFWGEGTQVTVSS,high polyreactivity
2,QVQLVDSGGGLVQAGGSLRLSCPASGSTFSRYAMGWYRQAPGKERELVAAISRSGGTTYYADSVKGRFTISRDNAKNTVYLQMNSLKPEDTAVYYCNDRGRYEYGYWGQGTQVTVSS,high polyreactivity
3,QVQLVDSGGGLVQAGGSLRLSSAASGRTLVNYAMGCYRQAPGKERELVAAISYSGGSTYYADSVKGRFTISRDNAKNTVYLQMNSLKPEDTAVYYCAAYYYQRYDYWGQGTQVTVSS,high polyreactivity
4,QVQLVDSGGGLVQAGGSLRLTCAASGIIFRLYGMGWYRQAPGKEREFVATITWRGGRTNYADSVKGRFTISRDNAKNTVYLQMNSLKPEDTAVYYCAKVVRYARSNEYDSWGQGTQVTVSS,low polyreactivity
5,QVQLVDSGGGLVQAGGSLRLTFAASGSIFAWYAMGLYRQEPGKERELVAVITRGGSTNYADSVKGRFTISRDNAKNTVYLPMISQKPEDTAVYYCAAGSYYSWYPFDYWGQGTQLTVSS,low polyreactivity
6,QVQLVDSGGGLVQAGGTLRLSCASSGSTFYYYAMGWYRQAPGKERELVAGITSGGSTNYADSVKGRFTISRDNAKNTVKLLMNSLKPEDTADYYCNARYRKYRYRYDYWGQGTQVSVSS,low polyreactivity
7,QVQLVDSGGGLVQAGGTLRLSCSASGRTFPTYAMGWYRQAPGKEREVVAAISSSGCSTYYADSVKGRFTISRDNAKNSVYLQMHSLKPEDTAVYYCAALRDRNLNPGYDYWGQGTQLTVSS,low polyreactivity
8,QVQLVDSGGGLVQARGTLRLSCAASGSTFRVYAMGWYRQAPGKEMELVAAISSSGGITYYADSVKGRFPISRDNAKNSVYLQMNSLKPEDTEVYYCAKGTVIHVLYDYWGQGTQVTVSS,low polyreactivity
9,QVQLVDSGGGLYQAGGSLSLTCAASGSIFDFNAMGWYRQAPGKERELVAAISGSGARTYYADSVKGRFTIARDNAKHTVYLQLNSLKPEDTAVYLCARPYVYGYDSWGQGTQVTFSS,high polyreactivity
10,QVQLVDSGGRLFQAGGSLRLSCAAYGFSFSYYDMGSYRQAPGKERELVAAIFSNGRTYYADSVKGRFTISRDNAKNTVYLQMNSLKPVDTAVYYCAAAYVGYYYSRGFDYWGQGTQVTVSS,high polyreactivity
11,QVQLVDSGRGFVQAGGSLRLSCAASGSTYPGNEMGRSRQAPGKESELVAAIRWSGGSTYYADSVKGRFTISRDNAKNNVYLQMNSLKPEDTAVYYCAADYLIPDTYLFQAYVGFEYWGQGTLVTVSS,low polyreactivity
12,QVQLVDSGVGLVQAGGSLRLSCAASGNTFSSYTMGWYIQAPGKERELVAGISRTGTSTYYADSVKGRFTISRDNAKNSVYLQMNSLKPEDTAVYYCAARTGWWYYWGQGTQVSVSS,high polyreactivity
13,QVQLVDSGVGLVQAGGSLRLSCAASGSIFYQNAMGWYRQAHGSERELVAAITSDGSTYYADSVKGRFTISRDNAKNTVYLQMNSLKPEDTAVYYCPAEYYGHRYDYCGQGTQVTVSS,low polyreactivity
14,QVQLVDSRGGLVQAGGSLRLSCAASGIIFFDYTMGWYSQAPGKERELVASITRGGSTYADSVKGRFTISRDNAMNSVYLQMNSLKPEDTAVYYCAATIVDYDAYGYWGQGTQVTVSS,low polyreactivity
15,QVQLVDSRGGLVQAGGSLRLSCAASGLTFGPYAMGRYRQAPGKEREFVAAITWRGGRTNYADSVKGRFTMSRDNAKNTVYLQMNSLKPEDTAVYYCNAVISPHQWIRGGDSWGQGTQVTVSS,low polyreactivity
16,QVQLVDSRGGLVQAGGSLRLSCSASGSIFPANVMGWYRQAPGKERELVASINSGDDTNYADSVKGRFTISRDNAKNTVYLQMNSLKPEDTAVYYCATGDWYPYGDYIYDYWGQGTQVTVSS,low polyreactivity
17,QVQLVDSVGGLVQAGGSLRISCAASGSIFGFYAMGWYRQSPGKERELVAAISQRGGNTYYADSVKRRFTISRDNAKNTVYLQMNSLKPEDTAFYFCASDKHPYKRHWYYTYDYWGLGTQVTVSS,high polyreactivity
18,QVQLVDSWGGLVQAGGSLRLSCAASGSIFTLYDMGWYRQAPGKERELVAAIDWSGGSTRYADSVKGRFTISRDNAKNTVYLQMNSLKPEDTAVYYCAKDLGGRYGRYRYDYWGQGTQVTVSS,high polyreactivity
19,QVQLVDTGGGLVQAGGILRIRCAASGRIFHGNSMVCYRQAPGKERELVAAITWGGTRTYYSDSVKGRFTISRDNAKNTVYLQMNSLKPEDTAVYYCATDYGYTDRVTSGFDYWGQGNQVTVSS,low polyreactivity
20,QVQLVDTGGGLVQAGGSLRLSCAASGLTIYGNAMGWSRQAPGKERELVAAISSSGGTTYYADSVKGRFTISRDNSKNTVYLQMNSLKPEDTAVYYCAARPSGGYESTRTRDYWGQGTQVTLSS,low polyreactivity
21,QVQLVEAGGGLVQAGGILRLSSAASGSIFPLNAMGWYRQAPGKERELVAAISESGGRTYYADSVNGRFTISRDNAKNTVYLQMNSLNPEDTAVYYCATVRLARKSAPYDYWGQGTQVTVSS,high polyreactivity
22,QVQLVEAGGGLVQAGGSLRLSCAASGRTFLRYTMGWYRQAPGKEREWVASITRGGSTYYADSVKGRFTISRDNAKNTVYLQMNSLKPEDTAVYYCAAGKALLSRYYYWGQGTQVTVSS,high polyreactivity

row,Sequence,polyreactivity (PSR sort gate)
1,QVQLVEAGGGLVQAGGSLRLSCAASGRTFPVNPMGGYRQAPGKERELVAAISKRAGSTYYADSVKGRFTISRDNAKNTVYLQMNSLKPEDTAVYYCAARWRVIYAEFDYWGQGTQVTVSS,high polyreactivity
2,QVQLVEAGGGLVQAGGSLRLSCAASGRTFTYYTMGWYRQAPGKERELVATITSGGITNYADSVKGRFTISRDNAKNTVYLQMNSLKTEDTAVYYCDKRWVNKYYYWGQGTQVTVSS,high polyreactivity
3,QVQLVEAGGGLVQAGGSLRLSCAASGRTLYPYAMGWYRQAPGKERELVAAISSRGGSTYYADSVKGRFTISRDNAKNTVYLQMNSLKPEDTAVYYCAKSYRKILSITGLVPWTDYFWGQGTQVTVSS,low polyreactivity
4,QVQLVEAGGGLVQAGGSLRLSCAASGYIFFFYAMGWYRQAPGKERELVASITYRGGSTYYADSVKGRFTISRDNAKNTVYLQMNSLIPEDTAVYYCNVDGGGPLGPQGFPFDYWGQGTQVTVSS,low polyreactivity
5,QVQLVEAGGGLVQAGGSLRLSCGASGLTLTYYAMGGYRQAPGKERELVASISRSGGRTYYADSVKGRFTISRDNAKNPVYLQMNSLKPEDTAVYYCNAAWYRGRYDYWGQGTQVTVSS,high polyreactivity
6,QVQLVEAGGGLVQAGGSLRLSGAASGFTLYANAMGWYRQAPGKERELVADISVSGSSTAYADSVKGRFTISRDNAKNTVYLQMNSLKPEDTAVYYCNADQGTRDSDYWGQGTQVTVSS,low polyreactivity
7,QVQLVEEGGGLVQAGGSLRLSCAASGRISYYYTMGWYSQAPGKERELVAAISWSGGTTYYADSVKGRFTISRDNAKYTVYLQMYSLKPEDTAVYYCAARDYYTDFHGTRRYDYWGQGTLVTVSS,low polyreactivity
8,QVQLVELGGGLVQAGGSLRLSCAASGSIFSRNTMGWYRQAPGKERELVAGISSSGSRTYYADSVKGRFTISRDNAKNTVYLQMNSLKPEDTAVYYCNARYYWKQAADYNYWGQGTQVTVSS,low polyreactivity
9,QVQLVEPGGGLVQAGGSLRLSCAASGRIFRGYAMGWYRQAPGKVRELVAANSQSGSSTYYADSVKGRFTISRDNAKNTVYLKMNSLKPEDTAVYYCAVKYLKHFGYWGQGTQVTVSS,high polyreactivity
10,QVQLVESAAGLVKAGASLRLSCAPSGSTFYLNAMGGSRQEPGQESEFVAAIRGGGTSTRYADSVKGRFTISRDNAKNSVYLQMNSLKPEDSAVYYCAAGPGGHRYKVGYWGLGTQVTVSS,high polyreactivity
11,QVQLVESAAGLVQAGGSLRLSCAASGFIFHCNAMGWSRQAPGKERELVAAISDTADITHYADSVKGRFTISRDNAKNTVYLQMNSLKPEDTAVYFCNAGSGVQVVWYKPYREYEYWGQGTQVTVSS,low polyreactivity
12,QVQLVESAAGLVQAGGSLRLSCAASGLTFTTYDKGWYTQAPRKQRELFAAISRGGSRTYYADSVKGRFTISRDNAKNTVYLQMNSLKPEDTAVYYGNALTGSFTTYSFDFWGQGTQVTVSS,high polyreactivity
13,QVQLVESAAGLVQAGGSLRLSSAASGSIFGPYAMGWYRQAPGKERELVAVISSGDSTNYADSVKGRFTISRDNAKNTVYLQMNSLKPEDTAVYYCATRYLLYRGGHSLFYHFDYWGQGTQVTVSS,low polyreactivity
14,QVQLVESAARLVQAGGSLRLSCAPSGNIFKGYAMGCYRQAPGKHRELVAAITSGDSTNYADSVKGRFTISRDNAKNTVYLQMNSLKPEDTGVYYCNARYSWWRSRDGSSHRPDGYWGQGTQVTVSS,high polyreactivity
15,QVQLVESAGGFVQAGGSLRLSCAASGLTFYYYAMGWYRQAPGTERELVAAFSTRGTSTYYADSVKGRFTISRDNAKKTVYLQMNSQKPEDTAVYYCAADSYPWGTGGDYWGQGTQVTVSS,high polyreactivity
16,QVQLVESAGGLDQAGGSLRLSCAASGFTFVAYSMGLYRQAPGKERELVADISRGGSTFYADSVKGRFTISRDNAKISVYLQKNSLKPEDSAVYYCASTYIHSYGKFYYWGQGTQVTVSS,low polyreactivity
17,QVQLVESAGGLFQEGGSLRVSCAASGSTFSYYDMGGYRQAPGKERELVAAINSTGITTYADSVKGRFTISRDNAKNTVYLQMNSLKPEDTAVYYCAAYHNYWGPYVWEEDYWGQGTQVTVSS,low polyreactivity
18,QVQLVESAGGLVQAAGSLRLSCDASGFIFGTNAMGWYRQAPGKERELVAAINGRGGGTYYADSVKGRFTISRDNAKNTVYLQMNSLKPEDTAVYYCAASRFDYWGQGTQVTVSS,low polyreactivity
19,QVQLVESAGGLVQAGGSLLLSCAASGFTFYPYAMGWYRQAPGKERELVAAISNGDSTHYADSVKGRFTISRDNAKNTVYLQMTSQKPEDTAVYYCAAPRYPYRCFYSDYDYWGQGTQVTVSS,low polyreactivity
20,QVQLVESAGGLVQAGGSLPLSSAASGRIFVWYAMRWYRQAPGKDRELVAAISISGSSTYYADSVKGRFTISRDNAKNTVYLQMNSLNPEDTAVYYCAARFYSSAYWYDYWGQGTQVTVSS,high polyreactivity
21,QVQLVESAGGLVQAGGSLRLICAASGRIFYLNAMGWYRQAPGKESELVAAINTSCGSTYADSVKWRFTISRDNAKNTVYLQMNSLKPEDTAVYYCNAYLAEVLPLGKGRLYDYWGQGTQVTVSS,low polyreactivity
